Results published in US9566335.

What was measured:
[1] = biological target: biotinylated peptide X-…(biotin), X = F; experiment: phage ELISA, biotinylated peptide on neutravidin; phage 10×
[2] = biological target: biotinylated peptide X-…(biotin), X = Y; experiment: as above
[3] = biological target: biotinylated peptide X-…(biotin), X = F; experiment: phage ELISA, biotinylated peptide on neutravidin
[4] = biological target: biotinylated peptide X-…(biotin), X = Y; experiment: phage ELISA, biotinylated peptide on neutravidin

Phage displayed wild-type E. coli ClpS (truncated wildtype ClpS polypeptide, FLAG-tagged, fused to phage coat protein p3) (from UniProt A7ZJU9 23-106)
phage ELISA signal (A450) [1]: 1.81
phage ELISA signal (A450) [2]: 1.08
phage ELISA signal (A450) [3]: 1.81
phage ELISA signal (A450) [4]: 1.08
